Test results from patent US20040033228A1.

Target: TNF (UniProt P01375)
Test: cell-based or functional assay

Sequence of UniProt P01375 (P01375 77-233 limits assumed): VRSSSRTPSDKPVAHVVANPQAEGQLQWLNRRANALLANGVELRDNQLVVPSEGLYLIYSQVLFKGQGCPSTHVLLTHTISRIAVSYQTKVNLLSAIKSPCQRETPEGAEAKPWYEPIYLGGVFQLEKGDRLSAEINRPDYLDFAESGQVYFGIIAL

In vitro TNF neutralization test; with 0.1% polysorbate 80; fast thaw -80° C. in water bath: 95.8
In vitro TNF neutralization test; with 0.1% polysorbate 80; no freeze/thaw: 112
In vitro TNF neutralization test; with 0.1% polysorbate 80; slow thaw -30° C. in refrigerator: 96.2
In vitro TNF neutralization test; with 0.1% polysorbate 80; slow thaw -80° in refrigerator: 96.7
In vitro TNF neutralization test; without 0.1% polysorbate 80; fast thaw -30° C. in water bath: 118
In vitro TNF neutralization test; without 0.1% polysorbate 80; fast thaw -80° C. in water bath: 120
In vitro TNF neutralization test; without 0.1% polysorbate 80; no freeze/thaw: 118
In vitro TNF neutralization test; without 0.1% polysorbate 80; slow thaw -30° C. in refrigerator: 124
In vitro TNF neutralization test; without 0.1% polysorbate 80; slow thaw -80° in refrigerator: 103
Substance: D2E7 antibody
